{"source": "patent US20260209386A1", "about": "(MYTHIC THERAPEUTICS, published 2026)", "data": [{"target": "T1, Human PTK7/CCK4 Protein, His Tag, Acro Biosystems PT7-H52H3 (human, UniProt Q13308 31-704)", "T1 construct": "bought protein; also called Human PTK7 Protein, His Tag, Acro Biosystems; not shown: His tag", "T1 sequence": "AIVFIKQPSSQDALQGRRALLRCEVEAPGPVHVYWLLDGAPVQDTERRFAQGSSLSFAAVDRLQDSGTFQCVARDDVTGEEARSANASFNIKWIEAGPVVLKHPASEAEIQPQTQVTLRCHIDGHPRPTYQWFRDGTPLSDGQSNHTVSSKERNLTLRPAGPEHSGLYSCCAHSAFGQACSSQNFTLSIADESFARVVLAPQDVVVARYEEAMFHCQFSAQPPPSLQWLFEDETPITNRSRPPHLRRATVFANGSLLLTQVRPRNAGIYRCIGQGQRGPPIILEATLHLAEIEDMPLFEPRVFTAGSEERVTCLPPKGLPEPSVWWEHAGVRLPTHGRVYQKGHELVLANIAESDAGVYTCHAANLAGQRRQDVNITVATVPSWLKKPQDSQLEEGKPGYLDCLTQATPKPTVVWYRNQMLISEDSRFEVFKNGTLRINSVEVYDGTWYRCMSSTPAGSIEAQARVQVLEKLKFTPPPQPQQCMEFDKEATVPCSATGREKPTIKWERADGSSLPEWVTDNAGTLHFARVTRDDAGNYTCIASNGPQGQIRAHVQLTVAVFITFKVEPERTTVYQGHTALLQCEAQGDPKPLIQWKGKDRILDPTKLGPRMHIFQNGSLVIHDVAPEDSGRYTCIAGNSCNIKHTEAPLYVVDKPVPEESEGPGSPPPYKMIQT", "test": "BLI, antibody on anti-human Fc sensor", "values": [{"binder": "MYT6162 (antibody, V domains shown, IgG) VH: QVQLVQSGPEVKKPGASVKVSCKASGYTFTDYHVHWVRQAPGKRLEWIGVISTYNDYTYNNQDFKGRVTMTRDTSASTAYMELSRLRSEDTAVYYCARGNSYFYALDYWGQGTSVTVSS VL: EIVLTQSPATLSLSPGERATLSCRASESVDSYGKSFMHWYQQKPGQAPRLLIYRASNLESGIPARFSGSGSGTDFTLTISSLEPEDFAVYYCQQSNEDPWTFGGGTKLEIK", "binding result": "no binding (tested: 50 nM PTK7)"}]}, {"target": "T2, Human PTK7 Protein, His Tag, Acro Biosystems (human, UniProt Q13308 31-704)", "T2 construct": "Bought recombinant protein; also called CCK4; not shown: His tag", "T2 sequence": "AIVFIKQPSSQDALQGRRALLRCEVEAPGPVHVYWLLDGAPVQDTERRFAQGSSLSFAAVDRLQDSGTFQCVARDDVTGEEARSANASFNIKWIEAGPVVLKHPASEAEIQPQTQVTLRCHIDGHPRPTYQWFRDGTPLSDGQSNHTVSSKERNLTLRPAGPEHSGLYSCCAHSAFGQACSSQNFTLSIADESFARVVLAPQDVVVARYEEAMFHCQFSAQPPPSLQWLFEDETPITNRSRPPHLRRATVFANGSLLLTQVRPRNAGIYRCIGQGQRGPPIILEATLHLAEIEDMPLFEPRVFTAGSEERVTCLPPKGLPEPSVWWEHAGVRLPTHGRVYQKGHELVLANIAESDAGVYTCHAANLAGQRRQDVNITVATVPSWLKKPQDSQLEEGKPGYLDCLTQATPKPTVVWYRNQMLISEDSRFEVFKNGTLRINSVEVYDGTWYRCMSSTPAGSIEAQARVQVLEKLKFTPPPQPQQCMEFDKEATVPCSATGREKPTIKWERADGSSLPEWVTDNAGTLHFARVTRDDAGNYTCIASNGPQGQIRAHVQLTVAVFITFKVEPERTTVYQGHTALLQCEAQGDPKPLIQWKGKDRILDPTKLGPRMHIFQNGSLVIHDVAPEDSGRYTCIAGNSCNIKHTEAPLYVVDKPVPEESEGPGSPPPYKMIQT", "test": "BLI, anti-human Fc capture, 50 nM PTK7; 1 = pH dependent binding relative to parent", "values": [{"binder": "MYT11134 (antibody, V domains shown, MYT9412 HC variant) VH: EVQLVESGGGLVQPGGSLRLSCTASGFSLSTYAMSWVRQAPGKGLEWVGMIYINDNTYYASWAKGRFTISRDTSKNTVYLQMNSLRAEDTAVYFCARDIGIHYYIGVSLWGQGTLVTVSS VL: EIVMTQSPSTLSASVGDRVIITCQASQSIGTRLSWYQQKPGKAPKLLIYGASKLATGVPSRFSGSGSGAEFTLTISSLQPDDFATYYCLGEYSYTTTDGIAFGQGTKLTVL", "binding result": "binds"}, {"binder": "MYT11136 (antibody, V domains shown, MYT9412 HC variant) VH: EVQLVESGGGLVQPGGSLRLSCTASGFSLSTYAMSWVRQAPGKGLEWVGMIYINDNTYYASWAKGRFTISRDTSKNTVYLQMNSLRAEDTAVYFCARDIGISYHIGVSLWGQGTLVTVSS VL: EIVMTQSPSTLSASVGDRVIITCQASQSIGTRLSWYQQKPGKAPKLLIYGASKLATGVPSRFSGSGSGAEFTLTISSLQPDDFATYYCLGEYSYTTTDGIAFGQGTKLTVL", "binding result": "binds"}, {"binder": "MYT11137 (antibody, V domains shown, MYT9412 HC variant) VH: EVQLVESGGGLVQPGGSLRLSCTASGFSLSTYAMSWVRQAPGKGLEWVGMIYINDNTYYASWAKGRFTISRDTSKNTVYLQMNSLRAEDTAVYFCARDIGISYYHGVSLWGQGTLVTVSS VL: EIVMTQSPSTLSASVGDRVIITCQASQSIGTRLSWYQQKPGKAPKLLIYGASKLATGVPSRFSGSGSGAEFTLTISSLQPDDFATYYCLGEYSYTTTDGIAFGQGTKLTVL", "binding result": "binds"}, {"binder": "MYT11144 (antibody, V domains shown, MYT9412 HC alanine variant) VH: EVQLVESGGGLVQPGGSLRLSCTASGFSLSTYAMSWVRQAPGKGLEWVGMIYINDNTYYASWAKGRFTISRDTSKNTVYLQMNSLRAEDTAVYFCARAIGISYYIGVSLWGQGTLVTVSS VL: EIVMTQSPSTLSASVGDRVIITCQASQSIGTRLSWYQQKPGKAPKLLIYGASKLATGVPSRFSGSGSGAEFTLTISSLQPDDFATYYCLGEYSYTTTDGIAFGQGTKLTVL", "binding result": "binds"}, {"binder": "MYT11146 (antibody, V domains shown, MYT9412 LC variant) VH: EVQLVESGGGLVQPGGSLRLSCTASGFSLSTYAMSWVRQAPGKGLEWVGMIYINDNTYYASWAKGRFTISRDTSKNTVYLQMNSLRAEDTAVYFCARDIGISYYIGVSLWGQGTLVTVSS VL: EIVMTQSPSTLSASVGDRVIITCQHSQSIGTRLSWYQQKPGKAPKLLIYGASKLATGVPSRFSGSGSGAEFTLTISSLQPDDFATYYCLGEYSYTTTDGIAFGQGTKLTVL", "binding result": "binds"}, {"binder": "MYT11150 (antibody, V domains shown, MYT9412 LC variant) VH: EVQLVESGGGLVQPGGSLRLSCTASGFSLSTYAMSWVRQAPGKGLEWVGMIYINDNTYYASWAKGRFTISRDTSKNTVYLQMNSLRAEDTAVYFCARDIGISYYIGVSLWGQGTLVTVSS VL: EIVMTQSPSTLSASVGDRVIITCQASQSHGTRLSWYQQKPGKAPKLLIYGASKLATGVPSRFSGSGSGAEFTLTISSLQPDDFATYYCLGEYSYTTTDGIAFGQGTKLTVL", "binding result": "binds"}, {"binder": "MYT11151 (antibody, V domains shown, MYT9412 LC variant) VH: EVQLVESGGGLVQPGGSLRLSCTASGFSLSTYAMSWVRQAPGKGLEWVGMIYINDNTYYASWAKGRFTISRDTSKNTVYLQMNSLRAEDTAVYFCARDIGISYYIGVSLWGQGTLVTVSS VL: EIVMTQSPSTLSASVGDRVIITCQASQSIHTRLSWYQQKPGKAPKLLIYGASKLATGVPSRFSGSGSGAEFTLTISSLQPDDFATYYCLGEYSYTTTDGIAFGQGTKLTVL", "binding result": "binds"}, {"binder": "MYT11152 (antibody, V domains shown, MYT9412 LC variant) VH: EVQLVESGGGLVQPGGSLRLSCTASGFSLSTYAMSWVRQAPGKGLEWVGMIYINDNTYYASWAKGRFTISRDTSKNTVYLQMNSLRAEDTAVYFCARDIGISYYIGVSLWGQGTLVTVSS VL: EIVMTQSPSTLSASVGDRVIITCQASQSIGHRLSWYQQKPGKAPKLLIYGASKLATGVPSRFSGSGSGAEFTLTISSLQPDDFATYYCLGEYSYTTTDGIAFGQGTKLTVL", "binding result": "binds"}, {"binder": "MYT11153 (antibody, V domains shown, MYT9412 LC variant) VH: EVQLVESGGGLVQPGGSLRLSCTASGFSLSTYAMSWVRQAPGKGLEWVGMIYINDNTYYASWAKGRFTISRDTSKNTVYLQMNSLRAEDTAVYFCARDIGISYYIGVSLWGQGTLVTVSS VL: EIVMTQSPSTLSASVGDRVIITCQASQSIGTHLSWYQQKPGKAPKLLIYGASKLATGVPSRFSGSGSGAEFTLTISSLQPDDFATYYCLGEYSYTTTDGIAFGQGTKLTVL", "binding result": "binds"}, {"binder": "MYT11163 (antibody, V domains shown, MYT9412 LC variant) VH: EVQLVESGGGLVQPGGSLRLSCTASGFSLSTYAMSWVRQAPGKGLEWVGMIYINDNTYYASWAKGRFTISRDTSKNTVYLQMNSLRAEDTAVYFCARDIGISYYIGVSLWGQGTLVTVSS VL: EIVMTQSPSTLSASVGDRVIITCQASQSIGTRLSWYQQKPGKAPKLLIYGASKLATGVPSRFSGSGSGAEFTLTISSLQPDDFATYYCHGEYSYTTTDGIAFGQGTKLTVL", "binding result": "binds"}, {"binder": "MYT11166 (antibody, V domains shown, MYT9412 LC variant) VH: EVQLVESGGGLVQPGGSLRLSCTASGFSLSTYAMSWVRQAPGKGLEWVGMIYINDNTYYASWAKGRFTISRDTSKNTVYLQMNSLRAEDTAVYFCARDIGISYYIGVSLWGQGTLVTVSS VL: EIVMTQSPSTLSASVGDRVIITCQASQSIGTRLSWYQQKPGKAPKLLIYGASKLATGVPSRFSGSGSGAEFTLTISSLQPDDFATYYCLGEHSYTTTDGIAFGQGTKLTVL", "binding result": "binds"}, {"binder": "MYT11172 (antibody, V domains shown, MYT9412 LC variant) VH: EVQLVESGGGLVQPGGSLRLSCTASGFSLSTYAMSWVRQAPGKGLEWVGMIYINDNTYYASWAKGRFTISRDTSKNTVYLQMNSLRAEDTAVYFCARDIGISYYIGVSLWGQGTLVTVSS VL: EIVMTQSPSTLSASVGDRVIITCQASQSIGTRLSWYQQKPGKAPKLLIYGASKLATGVPSRFSGSGSGAEFTLTISSLQPDDFATYYCLGEYSYTTTHGIAFGQGTKLTVL", "binding result": "binds"}, {"binder": "MYT11177 (antibody, V domains shown, MYT9412 LC alanine variant) VH: EVQLVESGGGLVQPGGSLRLSCTASGFSLSTYAMSWVRQAPGKGLEWVGMIYINDNTYYASWAKGRFTISRDTSKNTVYLQMNSLRAEDTAVYFCARDIGISYYIGVSLWGQGTLVTVSS VL: EIVMTQSPSTLSASVGDRVIITCQASQSIGTRLSWYQQKPGKAPKLLIYGASKLATGVPSRFSGSGSGAEFTLTISSLQPDDFATYYCLGEYSYTTTAGIAFGQGTKLTVL", "binding result": "binds"}, {"binder": "MYT11178 (antibody, V domains shown, MYT9412 LC alanine variant) VH: EVQLVESGGGLVQPGGSLRLSCTASGFSLSTYAMSWVRQAPGKGLEWVGMIYINDNTYYASWAKGRFTISRDTSKNTVYLQMNSLRAEDTAVYFCARDIGISYYIGVSLWGQGTLVTVSS VL: EIVMTQSPSTLSASVGDRVIITCQASQSIGTRLSWYQQKPGKAPKLLIYGASKLATGVPSRFSGSGSGAEFTLTISSLQPDDFATYYCLGEYSYTTTDAIAFGQGTKLTVL", "binding result": "binds"}]}]}
